This data set is described as follows: label from the status in PepcDB records.
Turning to “FYTPSFITSYMCKESITPIVLDKFNAIYQWDCENLKALRGEIDRNFSNEKAKEYLNTLLTLRICDPAVGSGHFLVSALNEMVRVAYELGLIASLYRYDLKLENDEIIIHHTPTGEIFNYIKPDSENDPHHHIQKELFNLKKSIIENCLFGVDINPNSCEITKLRLWIELLKYSYYIFEKGKNTNALETLPNIDINIKCANSLISRFALKDKALLKSEKNKNLEYSIAEYKELVKIYKDPKILETLTHPIKDSNAVRKYAKERLYQELKQNPNKDFKKALNDRIEKIKKAFKLTLNPPPKELKFKKFLKEHLELYGKSILEEANYNGLELEALALEKQMANLFFDYRPYPKLDKSDKVVGLEHFNRYVLTSYKDLQDENERYANALEWRFEFPEVLDDEGDFSGFDCIIGNPPYIRQEHIKDLKPLLEKQYQDFYNSTADIYTYFFALAFHLLKEKGFSAFITSNKYTRAKYGAKLREWLLKKTTIVSYMELNALKVFESAAVDTSIIHFIKQTPSKESEFKYYEPTPNDKDDLKSTPHLLMKQNVLST”, the protein production result is on record as “failed”.

As to “GDETGVMDSLLEALQSGAAFRRKRGPRQANRKAGCAVTSLLASELTKDDAMAAVPAKVSKNSETFPTILEEAKELVGRAS”, the protein production entry is “failed”.

With “GDGEEYTFWDPEYAGLQNGLKAVLPNAHNYITQFSANERRYIVYSTSSTQPGTYYFGDRDEKVLFPIAERYSQLSTEQLADTQYLSYEARDKLKIDAYLTVPKGFKAKHLPTIIFPHGGPISYDSNDFDYWAQFFANRGYAVFRMNFRGSAGYGYEFMKAGLKSWGLEMQNDVEDGTRYLINQGISDPQRICIVGASYGGYAALMGAAMTPDLYRCAVSVAGVTDVANLVRSSRRFTNYEVVKEQIGDDFNVLYERSPISKADKITIPVLLLHGDKDRVVKVQHSREMFDELKSRKKNVEYIELENGGHYLSNNDHRLTTFKALDKFLADNLK”, the protein production result is listed as “failed”.

For the sequence “GGGTRFALVAGTTETAGRAGISAAGADPELMSVTPAADAELVTYGTPVRTDVTPVSPSGCPTPALVTRAAREVLGFDVTVVDGGLAEKTGAPTVSVGARPGKDIAEQDPVSTAHGAFAAARQFGQSLPADELYLGETIPGGTTTALGVLRALGEDGMVSSSLPENPTAQKSEVVAEGLQASSLEPGDAANEPKRAVRRMGDPVLATLAGLTAGAVESDTAVTLAGGSQCVAVAALVRHGGYEGPLGLATTSYVADDESADVRASVDRLDLDLTVTDPGFDRSDHVAMERFVAGEAKEGVGMGGALALADRAGI”, the protein production entry was “failed”.

Consider “GKKDKEKIIDDFKVAVVTQPLSENKVQYNMVEEMAKEYEEENKIDKDKDGQTKVKQTIKHVVLPENFTSNIDSAINKIVKLADDKEVQAIVVSTDQAGLLPALQKVKEKRPEIITISAPMGDDKNQLSQFVDVNLGVSAEERGKVLAERSKEMGAKAFIHYASTDDLKDVNIAKRLEMIKETCKNIGLPFVQVNTPNINTEEDKNKVKQFLNEDIEKQVKKYGKDINVFGVNEYMDEVILTKALELKYIVAEQSNPSPIQTYPSVMGLKISEKDAQNYDKINDMISEKAKAFGMSNRLGGYPMPMDAFLPSLAIYLATEMVKQDLTQEDVCDPDYLEAFTELRFGIGSEFTPLTEVLYNYQSVILSQLIY”, for which the protein production entry was “not failed”.

In the case of “GLQAEWMQMSSLGTVDAPNFIVGNPWDDKLIFKLLSGLSKPVSSYPNTFEWQCKLPAIKPKTEFQLGSKLVYVHHLLGEGAFAQVYEATQGDLNDAKNKQKFVLKVQKPANPWEFYIGTQLMERLKPSMQHMFMKFYSAHLFQNGSVLVGELYSYGTLLNAINLYKNTPEKVMPQGLVISFAMRMLYMIEQVHDCEIIHGDIKPDNFILGNGFLEQDDEDDLSAGLALIDLGQSIDMKLFPKGTIFTAKCETSGFQCVEMLSNKPWNYQIDYFGVAATVYCMLFGTYMKVKNEGGECKPEGLFRRLPHLDMWNEFFHVMLNIPDCHHLPSLDLLRQKLKKVFQQHYTNKIRALRNRLIVLLLECKRSRK”, the protein production result is recorded as “failed”.

Take “GMFGLVFNTRRATFADEKVREGLSYALDFEWLNRNILGGSFKRTQSYWQNSPLGAYGNAADERELALLGDAAKTMPAELLAGTYAMPTTDGTGADRKVLKLAVDKLKEAGYSIKNGKMSDANGRQLAFEIMTQNPAQERIALAYQRSLNLIGVAMGIRSVDDGQYQARSNSFDYDMIIRSLPSSLSPGMEQLNRWNSLSRDAQGSFNYAGVANPDIDRMIEALLQARSTEDFQAAVRAYDRLLVAGHYIIPLYYIG”: the protein production result is listed as “failed”.

As to “GMQGYFFNTRRDLFKDIRVREALSYAFDFEWSNKNLFFGQYTRTKSFFDNSELASFGTPSPQEREWLTPFKEQLPEGIFDQPFTLPTTKGDGNIRPQLKRAQQLLKEAGYEIKNKKLIHTTTGQPFVFELLLLSPAMERVALPFKRNLATLGIEMKIRTIDLTQYINRLREFDYDMIVGVIGQSLSPGNEQRYYWHSSSKDERGSKNYAGIDHPAVDRLVEMVVNAKDRRELVDYTRALDRVLLWNHYVIPHFHNR”, the protein production entry is “not failed”.

Turning to “GNIEAALFGLIALYAQTKVIDSIIYGGDAGSMATIVTGNPDGIAAKVIYELDRTATVLPAKGAYSRKDTSVLLCTVRKSQFVKLKRIVYEEDPDAFVMVTETSEVLGLGFRAFKDSL”, the protein production result is recorded as “failed”.

For the sequence “GNPEIKGRRRQIAQEIAYEDTSSQIKHASAVVSNPKDIAVAIGYMPEKYKAPWIIAMGVNLRAKRIIAEAEKYGVPIMRNVPLAHQLLDEGKELKFIPETTYEAVGEILLYITSLNAQNLENKNINQFDNL”, the protein production result is given as “not failed”.

On to “GPPSRRSENRVVVSGLPPSGSWQDLKDHMREAGDVCYADVYRDGTGVVEFVRKEDMTYAVRKLDNTKFRSHEGETAYIRVKVDGPRSPSYGRSRSSGPSSG”, for which the protein production result is listed as “not failed”.

Regarding “GQDTGEDNLAIKGITTLNDLTMVNVSGPGMKGMVGMASRVFGAMSSAGVSIVLITQSSSEYSISFCIEADDKLKAQQVLADAFELELKDGLLEPVDFIDDVSIVTLVGDGMRTSRGVASRFFSSLAEVNVNIVAIAQGSSERAISAVIPEDKISEAIKACHENLFNSKYF”, the protein production entry is recorded as “not failed”.

As to “GQDYLDIIGRLLPVLPYNLAIIGADGQVLLMNPPMSRITGMSLRQFVMYPSDWVVQEDKAAVADAVRRYSSGRALSGEISVRLIAKPEETVILTLTGIRHLGESALMISLQESASENEIKQQMAQTTRMQAIGQLAGGVAHDFNNILTAI”, the protein production result is on record as “failed”.

As for “GQLSIKLWFDKVGHQLIVTILGAKDLPSREDGRPRNPYVKIYFLPDRSDKNKRRTKTVKKTLEPKWNQTFIYSPVHRREFRERMLEITLWDQARVREEESEFLGEILIELETALLDDEPHWYKLQTHD”, the protein production entry is listed as “not failed”.

Take “GRDLLLAVDVSGSMDYRDMRWQDDEISRLELIKKLFGDFIEDRRGDRVGLILFGSQAYLQAPLTFDRHTVRVWLDEAQIGIAGKNTAIGDAIGLAVKRLRQRPAESRVLVLITDGANTGGQIAPQIAAQLAAEQQVKIYTIGIGADPQQGGVPGLFGFNPGLDLDEPTLRGIAESTGGEYFRARSSAELESISATLDRLEPVA”: the protein production result is listed as “failed”.

For “GREQMASFESAYVALSRMKQHVQVYTDNREGWIKAIKNSPEKATAHDILEPRNDRAVKTADLLFGRARPLDETAAGRAALQQSGLAQGSSPGKFISPGKKYPQPHVALPAFDKNGKAAGIWLSPLTDRDGRLEAIGGEGRIMGNEDARFVALQNSRNGESLLAGNMGEGVRMARDNPDTGVVVRLAGDDRPWNPGAMTGGRVWAEPAPVAPVPQAGADIILPPEVLAQRAAEEQQRREMEKKAEQTAREMAGEARKAG”, the protein production result was “failed”.

Regarding “GRKVGFRKGPRPGAGPREGGFRNDGPRGEGGYRNDGPRGEGGYRNDGPRGEGPRNEGPRGEGYRNDGPRGEGFRGPRFNNGPSNGYENRQDNNRFGEKRRSAQKPLKVDDEAQFPTLC”, the protein production result is “failed”.

As for “GSAEILVPEVYHGPGKRGTGFYNADQKINRDITIEFIKKMGIRNVLDGFGGTGIRGIRISKETDSAVTISEVSPDSYRLIRDNVERNGSQASVINDSFECVLQHGAYEYVDVDPYGSPVPYLDAALMGVKRNGFLGVTATDQSALTGSVPHKTRIRYDALIKNDTFRHEMGIRLLIGYMAKRAASLGRFIDPLISIWHGHYYRVFVRVRKGFEGAGRMMQNLGYVNKHNLLSGIYQDMDEGPVWKGNLQDNAVAEAVLASAGHKAFNPEENRLLFCDLTDIARARHTSLPDIESVIDALSSSGHAASRTMFSPTGIKTDASCDLVESLMMDTLHRRS”, the protein production result is listed as “failed”.

“GSAQEEQSANEVAVSYSKSLKAAEMDSLQLPVDADGYITIFDGKTFNGWRGYGKDRVPSKWTIEDGCIKFNGSGGGEAQDGDGGDLIFAHKFKNFELEMEWKVSKGGNSGIFYLAQEVTSKDKDGNDVLEPIYISAPEYQVLDNDNHPDAKLGKDNNRQSASLYDMIPAVPQNAKPFGEWNKAKIMVYKGTVVHGQNDENVLEYHLWTKQWTDLLQASKFSQDKWPLAFELLNNCGGENHEGFIGMQDHGDDVWFRNIRVKVLD”: the protein production result is recorded as “not failed”.

In the case of “GSDSSLFETYNVELVRKDGQSLGIRIVGYVGTSHTGEASGIYVKSVIPGSAAYHNGHIQVNDKIVAVDGVNIQGFANHDVVEVLRNAGQVVHLTLVRRKTSSSTSPLEPPSDRGTV”, the protein production result is on record as “not failed”.

Take “GSESFDILTDPAQAKEVGTALGIFHQLLSDLSPSQLVDTLPGFHHTPIYLQQYQRALAQNPKLTGSLGPEINHCQRVIKTWLDQCGVLETAKAQGQLPLRLMHGDPKVNNILFDRQSGKAVSVIDLDTTKPGLIHYDLGDCLRSGCNLLGEETENWSAVEFDLDLCRAILEGYLPQCQHFLTAADYDYLCPAIVLISFELGLRFFTDYLNGDRYFKVKYPEHNLIRALVQFQLASHIQSQEDAIRRMIEDIRG”: the protein production entry is “failed”.

“GSHMLGGKGRPSGVGGYRILVTTSRRPSPRIRSFVKDLSATIPGAFRFTRGHYSMEELAREAIIRGADRIVVVGERRGNPGIIRVYAVEGPERPDNIVSFIVKGVSLSRERRWGLPSLRGGEVLVARPLDSGVAVEFADAFVIAFHARLKPPEAAGYVEAVIESLDARTVAVTFRYGGAPVGPMLRLGKPAEMVKRGRRV”: the protein production result is listed as “not failed”.

Take “GSSGSSGMASTFTSDTLPADHKAAIRQMKHALRAQLGDVQQIFNQLSDDIATRVAEINALKAQGDAVWPVLSYADIKAGHVTAEQREQIKRRGCAVIKGHFPREQALGWDQSMLDYLDRNRFDEVYKGPGDNFFGTLSASRPEIYPIYWSQAQMQARQSEEMANAQSFLNRLWTFESDGKQWFNPDVSVIYPDRIRRRPPGTTSKGLGAHTDSGALERWLLPAYQRVFANVFNGNLAQYDPWHAAHRTEVEEYTVDNTTKCSVFRTFQGWTALSDMLPGQGLLHVVPIPEAMAYVLLRPLLDDVPEDELCGVAPGRVLPVSEQWHPLLIEALTSIPKLEAGDSVWWHCDVIHSVAPVENQQGWGNVMYIPAAPMCEKNLAYAHKVKAALEKGASPGDFPREDYETNWEGRFTLADLNIHGKRALGMDV”: the protein production result was “not failed”.

“GSSGSSGMQLEIQVALNFIISYLYNKLPRRRVNIFGEELERLLKKKYEGHWYPEKPYKGSGFRCIHIGEKVDPVIEQASKESGLDIDDVRGNLPQDLSVWIDPFEVSYQIGEKGPVKVLYVDDNSGPSSG”: the protein production entry was “not failed”.

With “GTIGPVADAEPHAAALGEAFQLTNFLRDVGEDLDRGRVYLPADELAAFGVDTELLAHSRRSGTTDQRIVRALAHLISVTRSVYRDAEPGIAMLDRRVQPGIRTAFVLYSRILDEIERGGYRVLDRRATVSRRNRWATALPQFARLAV”, the protein production entry was “failed”.

Consider “GTVSWNLREMLAHAEETRKLMPICMDVRAIMATIQRKYKGIKIQEGIVDYGVRFFFYTSKEPVASIITKLNSLNEPLVTMPIGYVTHGFNLEEAARCMRSLKAPAVVSVSSPDAVTTYNGYLTSSSKTSEEHFVETVSLAGSYRDWSYSGQRTELGVEFLKRGDKIVYHTLESPVEFHLDGEVLSLDKLKSLLS”, for which the protein production result is given as “not failed”.

The record behind these values is a protein production outcome set (Wang et al. 2014).
